Reference: article PMC5737856 (Nucleic Acids Research, 2017)
Each block holds one binder with its values, some of them ahead of it.

B4: BEN domain 1 of BEND3 (domain or fragment, human)
chain: MVAKFQPPPEYQLTAAELKQIVDQSLSGGDLACRLLVQLFPELFSDVDFSRGCSACGFAAKRKLESLHLQLIRNYVEVYYPSVKDTAVWQAECLPQLNDFFSRFWAQREMED

Columns and labels:
[1] = molecular target: T1, catalytic SNF2/HELIC region of PICH (human); assay: MST
T1 sequence (Q2NKX8 whole entry, looked up): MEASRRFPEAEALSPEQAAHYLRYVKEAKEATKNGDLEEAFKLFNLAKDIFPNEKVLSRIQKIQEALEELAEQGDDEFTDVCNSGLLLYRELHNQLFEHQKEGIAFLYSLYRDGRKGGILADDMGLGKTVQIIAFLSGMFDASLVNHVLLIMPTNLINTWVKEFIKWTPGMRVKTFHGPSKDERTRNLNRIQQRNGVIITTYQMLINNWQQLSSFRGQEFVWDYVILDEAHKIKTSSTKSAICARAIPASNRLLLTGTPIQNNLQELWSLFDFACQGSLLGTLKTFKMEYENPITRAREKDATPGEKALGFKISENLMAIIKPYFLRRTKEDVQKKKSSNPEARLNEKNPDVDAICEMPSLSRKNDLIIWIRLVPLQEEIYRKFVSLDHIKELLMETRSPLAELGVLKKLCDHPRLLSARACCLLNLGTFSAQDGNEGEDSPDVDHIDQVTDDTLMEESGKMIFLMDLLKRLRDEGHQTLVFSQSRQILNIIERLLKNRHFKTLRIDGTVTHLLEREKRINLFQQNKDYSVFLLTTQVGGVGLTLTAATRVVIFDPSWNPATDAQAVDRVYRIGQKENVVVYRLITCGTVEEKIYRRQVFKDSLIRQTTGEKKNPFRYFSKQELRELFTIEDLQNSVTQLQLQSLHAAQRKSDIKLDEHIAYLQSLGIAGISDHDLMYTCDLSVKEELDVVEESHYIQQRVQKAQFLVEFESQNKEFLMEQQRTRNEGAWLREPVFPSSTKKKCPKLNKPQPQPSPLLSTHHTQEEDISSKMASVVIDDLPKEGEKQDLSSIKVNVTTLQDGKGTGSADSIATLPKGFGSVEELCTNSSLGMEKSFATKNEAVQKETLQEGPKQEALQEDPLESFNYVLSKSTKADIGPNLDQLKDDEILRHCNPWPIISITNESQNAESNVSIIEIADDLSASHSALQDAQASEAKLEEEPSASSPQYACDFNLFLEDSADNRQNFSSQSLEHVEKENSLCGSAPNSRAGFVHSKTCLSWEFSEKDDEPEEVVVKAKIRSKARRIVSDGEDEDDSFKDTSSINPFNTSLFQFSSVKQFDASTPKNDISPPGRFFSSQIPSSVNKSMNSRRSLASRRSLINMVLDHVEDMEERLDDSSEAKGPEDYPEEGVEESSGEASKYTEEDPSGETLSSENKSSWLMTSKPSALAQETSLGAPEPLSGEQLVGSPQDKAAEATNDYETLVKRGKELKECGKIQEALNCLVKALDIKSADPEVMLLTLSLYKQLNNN

BEN domain 1 of BEND3 = molecular target: B4; assay: MST
SEC + native gel or EMSA = molecular target: the molecule itself; assay: SEC + native gel or EMSA
[2] = molecular target: T2, PICH, full length (recombinant) (human, UniProt Q2NKX8 1-1250); assay: MST
T2 sequence (looked up): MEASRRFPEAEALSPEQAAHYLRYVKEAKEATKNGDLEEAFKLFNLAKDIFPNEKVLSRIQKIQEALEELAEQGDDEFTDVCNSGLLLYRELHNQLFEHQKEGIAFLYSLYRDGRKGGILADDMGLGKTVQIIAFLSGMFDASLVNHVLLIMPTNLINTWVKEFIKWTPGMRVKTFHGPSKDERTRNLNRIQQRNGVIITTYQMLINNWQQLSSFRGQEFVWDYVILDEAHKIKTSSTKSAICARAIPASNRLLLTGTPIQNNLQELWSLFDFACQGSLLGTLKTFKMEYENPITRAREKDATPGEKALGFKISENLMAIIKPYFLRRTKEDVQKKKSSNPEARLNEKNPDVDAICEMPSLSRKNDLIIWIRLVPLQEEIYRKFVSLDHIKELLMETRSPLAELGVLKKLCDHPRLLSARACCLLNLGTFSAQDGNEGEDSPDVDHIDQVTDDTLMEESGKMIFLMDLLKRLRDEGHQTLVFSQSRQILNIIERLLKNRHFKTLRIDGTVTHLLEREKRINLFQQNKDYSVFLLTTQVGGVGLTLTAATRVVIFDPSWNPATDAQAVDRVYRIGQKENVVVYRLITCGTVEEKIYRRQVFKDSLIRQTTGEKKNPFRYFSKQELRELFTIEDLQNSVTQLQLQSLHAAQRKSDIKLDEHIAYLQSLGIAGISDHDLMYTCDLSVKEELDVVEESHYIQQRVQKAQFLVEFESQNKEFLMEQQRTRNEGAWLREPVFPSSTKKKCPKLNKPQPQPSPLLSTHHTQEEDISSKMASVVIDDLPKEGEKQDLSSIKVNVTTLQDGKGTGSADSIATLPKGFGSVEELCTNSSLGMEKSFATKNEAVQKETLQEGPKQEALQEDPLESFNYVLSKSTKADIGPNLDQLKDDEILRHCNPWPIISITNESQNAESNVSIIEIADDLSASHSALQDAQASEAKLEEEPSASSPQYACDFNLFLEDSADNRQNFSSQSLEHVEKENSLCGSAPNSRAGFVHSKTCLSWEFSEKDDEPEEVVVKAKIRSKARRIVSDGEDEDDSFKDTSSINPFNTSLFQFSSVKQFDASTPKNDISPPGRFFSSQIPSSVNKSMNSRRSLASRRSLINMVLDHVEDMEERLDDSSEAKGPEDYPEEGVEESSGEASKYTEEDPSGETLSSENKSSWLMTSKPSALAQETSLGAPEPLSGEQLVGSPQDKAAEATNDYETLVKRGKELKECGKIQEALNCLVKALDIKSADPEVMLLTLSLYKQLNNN

[3] = molecular target: T2, PICH, full length (recombinant); assay: SPR

- Kd (BEN domain 1 of BEND3): 1200 ± 250 nM
B2: N-terminal TPR motif of PICH (domain or fragment, human)
chain: AEALSPEQAAHYLRYVKEAKEATKNGDLEEAFKLFNLAKDIFPNEKVLSRIQKIQEA

- Kd [3]: 700 ± 300 nM
B5: BEND3, full length (from HEK293 cells) (natural protein, human, UniProt Q5T5X7 1-828, looked up)
chain: MNSTEFTEDVEEVLKSITVKVETEAEDAALDCSVNSRTSEKHSVDSVLTALQDSSKRKQLVSDGLLDSVPGVKRRRLIPEALLAGMRNRENSSPCQGNGEQAGRGRSLGNVWPGEEEPCNDATTPSYKKPLYGISHKIMEKKNPPSGDLLNVYELFEKANASNSPSSLRLLNEPQKRDCGSTGAGTDNDPNIYFLIQKMFYMLNTLTSNMSQLHSKVDLLSLEVSRIKKQVSPTEMVAKFQPPPEYQLTAAELKQIVDQSLSGGDLACRLLVQLFPELFSDVDFSRGCSACGFAAKRKLESLHLQLIRNYVEVYYPSVKDTAVWQAECLPQLNDFFSRFWAQREMEDSQPSGQVASFFEAEQVDPGHFLDNKDQEEALSLDRSSTIASDHVVDTQDLTEFLDEASSPGEFAVFLLHRLFPELFDHRKLGEQYSCYGDGGKQELDPQRLQIIRNYTEIYFPDMQEEEAWLQQCAQRINDELEGLGLDAGSEGDPPRDDCYDSSSLPDDISVVKVEDSFEGERPGRRSKKIWLVPIDFDKLEIPQPDFEVPGADCLLSKEQLRSIYESSLSIGNFASRLLVHLFPELFTHENLRKQYNCSGSLGKKQLDPSRIKLIRHYVQLLYPRAKNDRVWTLEFVGKLDERCRRRDTEQRRSYQQQRKVHVPGPECRDLTSYAINPERFREEFEGPPLPPERSSKDFCKIPLDELVVPSPDFPVPSPYLLSDKEVREIVQQSLSVGNFAARLLVRLFPELFTAENLRLQYNHSGACNKKQLDPTRLRLIRHYVEAVYPVEKMEEVWHYECIPSIDERCRRPNRKKCDILKKAKKVEK
- stoichiometry N (SEC + native gel or EMSA): 8

More lines, now with the values behind:

B1: BEN domain 3 of BEND3 (domain or fragment)
chain: VPGADCLLSKEQLRSIYESSLSIGNFASRLLVHLFPELFTHENLRKQYNCSGSLGKKQLDPSRIKLIRHYVQLLYPRAKNDRVWTLEFVGKLDERCRRRDTEQ
- Kd [1]: 1500 nM

B3: isolated N-terminal region of BEND3 (residues 1-534) (domain or fragment, human, UniProt Q5T5X7 1-534, looked up)
chain: MNSTEFTEDVEEVLKSITVKVETEAEDAALDCSVNSRTSEKHSVDSVLTALQDSSKRKQLVSDGLLDSVPGVKRRRLIPEALLAGMRNRENSSPCQGNGEQAGRGRSLGNVWPGEEEPCNDATTPSYKKPLYGISHKIMEKKNPPSGDLLNVYELFEKANASNSPSSLRLLNEPQKRDCGSTGAGTDNDPNIYFLIQKMFYMLNTLTSNMSQLHSKVDLLSLEVSRIKKQVSPTEMVAKFQPPPEYQLTAAELKQIVDQSLSGGDLACRLLVQLFPELFSDVDFSRGCSACGFAAKRKLESLHLQLIRNYVEVYYPSVKDTAVWQAECLPQLNDFFSRFWAQREMEDSQPSGQVASFFEAEQVDPGHFLDNKDQEEALSLDRSSTIASDHVVDTQDLTEFLDEASSPGEFAVFLLHRLFPELFDHRKLGEQYSCYGDGGKQELDPQRLQIIRNYTEIYFPDMQEEEAWLQQCAQRINDELEGLGLDAGSEGDPPRDDCYDSSSLPDDISVVKVEDSFEGERPGRRSKKIWLVPI
- binding result (SEC + native gel or EMSA): binds

Binder: B4
- Kd [2]: 200 ± 250 nM
